# From US20150344570A1 (published 2015)
# T1: FcγRIIa R (FcγRIIa, allotype with Arg at position 131), extracellular domain with C-terminal His tag (human, UniProt P12318 34-217)
# T1 construct: extracellular domain; also called FcγRIIa R type; 2aR
# T1 sequence (looked up): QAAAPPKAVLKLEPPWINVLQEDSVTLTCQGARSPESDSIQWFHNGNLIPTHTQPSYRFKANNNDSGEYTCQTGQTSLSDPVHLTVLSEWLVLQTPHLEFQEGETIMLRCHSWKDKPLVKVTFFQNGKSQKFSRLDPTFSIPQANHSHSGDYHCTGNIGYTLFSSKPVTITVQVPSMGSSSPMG
# B1: GpH7-B3 variant S337_20W/GpL16-k0 (antibody, human IgG1, kappa)
# heavy: not shown
# light: DIVMTQSPLSLPVTPGEPASISCQASESLVHSNRNTYLHWYLQKPGQSPQLLIYKVSNRFSGVPDRFSGSGSGTDFTLKISRVEAEDVGVYYCSQNTHVPPTFGQGTKVEIERTVAAPSVFIFPPSDEQLKSGTASVVCLLNNFYPREAKVQWKVDNALQSGNSQESVTEQDSKDSTYSLSSTLTLSKADYEKHKVYACEVTHQGLSSPVTKSFNRGEC
# notes: also called Ho Ab
# B2: GpH7-B3 variant T335_18N/GpL16-k0 (antibody, human IgG1, kappa)
# heavy: not shown
# light: B1 light
# notes: also called Ho Ab
# B3: GpH7-A5/GpH7-B3 variant S239_05P/GpL16-k0 (antibody, human IgG1, kappa)
# heavy 1: not shown
# heavy 2: not shown
# light: B1 light
# notes: also called He Ab
# B4: GpH7-B3 variant T335_10E/GpL16-k0 (antibody, human IgG1, kappa)
# heavy: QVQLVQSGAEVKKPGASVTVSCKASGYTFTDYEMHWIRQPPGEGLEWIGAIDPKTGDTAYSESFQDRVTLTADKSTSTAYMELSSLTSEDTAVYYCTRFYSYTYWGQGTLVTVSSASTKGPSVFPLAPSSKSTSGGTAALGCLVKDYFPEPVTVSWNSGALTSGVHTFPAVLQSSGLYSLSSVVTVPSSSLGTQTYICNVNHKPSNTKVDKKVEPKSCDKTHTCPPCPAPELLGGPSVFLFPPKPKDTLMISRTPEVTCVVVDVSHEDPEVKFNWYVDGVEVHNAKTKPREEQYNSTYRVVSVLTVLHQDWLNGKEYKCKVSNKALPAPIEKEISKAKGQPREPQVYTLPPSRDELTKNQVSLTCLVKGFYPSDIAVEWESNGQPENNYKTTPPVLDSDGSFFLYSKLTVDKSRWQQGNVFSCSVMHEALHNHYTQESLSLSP
# light: B1 light
# notes: also called Ho Ab
# B5: GpH7-A5/GpH7-B3 variant P331_09D/GpL16-k0 (antibody, human IgG1, kappa)
# heavy 1: not shown
# heavy 2: not shown
# light: B1 light
# notes: also called He Ab
# B6: GpH7-B3 variant Y296_06M/GpL16-k0 (antibody, human IgG1, kappa)
# heavy: not shown
# light: B1 light
# notes: also called Ho Ab
# B7: GpH7-B3 variant Y296_18N/GpL16-k0 (antibody, human IgG1, kappa)
# heavy: not shown
# light: B1 light
# notes: also called Ho Ab
# B8: GpH7-B3 variant S337_18N/GpL16-k0 (antibody, human IgG1, kappa)
# heavy: not shown
# light: B1 light
# notes: also called Ho Ab
# B9: GpH7-B3 variant T335_05P/GpL16-k0 (antibody, human IgG1, kappa)
# heavy: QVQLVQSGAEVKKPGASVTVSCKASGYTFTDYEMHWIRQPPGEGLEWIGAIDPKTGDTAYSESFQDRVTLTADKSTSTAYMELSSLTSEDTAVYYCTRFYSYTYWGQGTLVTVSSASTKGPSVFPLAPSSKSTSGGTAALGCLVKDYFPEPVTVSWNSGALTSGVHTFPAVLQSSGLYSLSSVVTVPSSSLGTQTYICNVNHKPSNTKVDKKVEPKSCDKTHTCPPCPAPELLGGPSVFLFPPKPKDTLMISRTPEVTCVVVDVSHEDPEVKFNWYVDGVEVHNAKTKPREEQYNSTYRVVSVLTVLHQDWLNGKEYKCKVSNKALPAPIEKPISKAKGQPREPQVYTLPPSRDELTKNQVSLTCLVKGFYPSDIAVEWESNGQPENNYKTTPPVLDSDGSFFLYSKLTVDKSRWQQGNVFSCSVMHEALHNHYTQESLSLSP
# light: B1 light
# notes: also called Ho Ab
# B10: GpH7-B3 variant S337_09D/GpL16-k0 (antibody, human IgG1, kappa)
# heavy: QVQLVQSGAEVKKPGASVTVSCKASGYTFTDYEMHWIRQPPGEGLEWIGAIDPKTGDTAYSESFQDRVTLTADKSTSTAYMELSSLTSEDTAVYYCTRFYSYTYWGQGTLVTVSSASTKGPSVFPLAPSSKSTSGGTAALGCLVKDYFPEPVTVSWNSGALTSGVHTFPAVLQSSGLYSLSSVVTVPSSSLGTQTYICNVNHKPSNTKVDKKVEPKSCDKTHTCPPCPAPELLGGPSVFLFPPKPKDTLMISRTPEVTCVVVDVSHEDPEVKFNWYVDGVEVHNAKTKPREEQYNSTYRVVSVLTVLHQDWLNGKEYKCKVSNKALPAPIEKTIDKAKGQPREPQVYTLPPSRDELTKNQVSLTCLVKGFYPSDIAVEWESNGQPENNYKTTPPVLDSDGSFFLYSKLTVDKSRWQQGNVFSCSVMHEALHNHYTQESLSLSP
# light: B1 light
# notes: also called Ho Ab
# B11: GpH7-A5/GpH7-B3 variant P331_06M/GpL16-k0 (antibody, human IgG1, kappa)
# heavy 1: not shown
# heavy 2: not shown
# light: B1 light
# notes: also called He Ab
# B12: GpH7-B3 variant T335_07I/GpL16-k0 (antibody, human IgG1, kappa)
# heavy: not shown
# light: B1 light
# notes: also called Ho Ab
# B13: GpH7-B3 variant T335_02A/GpL16-k0 (antibody, human IgG1, kappa)
# heavy: not shown
# light: B1 light
# notes: also called Ho Ab
# B14: GpH7-A5/GpH7-B3 variant P331_08L/GpL16-k0 (antibody, human IgG1, kappa)
# heavy 1: not shown
# heavy 2: not shown
# light: B1 light
# notes: also called He Ab
# B15: GpH7-B3 variant S324_06M/GpL16-k0 (antibody, human IgG1, kappa)
# heavy: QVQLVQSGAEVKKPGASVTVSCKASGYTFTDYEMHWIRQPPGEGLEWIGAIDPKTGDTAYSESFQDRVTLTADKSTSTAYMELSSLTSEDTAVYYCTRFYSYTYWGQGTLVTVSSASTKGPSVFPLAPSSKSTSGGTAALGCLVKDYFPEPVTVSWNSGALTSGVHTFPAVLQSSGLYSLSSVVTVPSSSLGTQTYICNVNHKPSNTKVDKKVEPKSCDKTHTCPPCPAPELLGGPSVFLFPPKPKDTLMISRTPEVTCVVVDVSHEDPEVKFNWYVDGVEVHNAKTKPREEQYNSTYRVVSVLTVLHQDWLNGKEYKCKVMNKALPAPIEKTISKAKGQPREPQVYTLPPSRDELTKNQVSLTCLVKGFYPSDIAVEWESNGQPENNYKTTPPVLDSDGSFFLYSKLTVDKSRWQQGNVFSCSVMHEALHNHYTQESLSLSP
# light: B1 light
# notes: also called Ho Ab
# B16: GpH7-B3 variant T335_16H/GpL16-k0 (antibody, human IgG1, kappa)
# heavy: not shown
# light: B1 light
# notes: also called Ho Ab
# B17: GpH7-B3 variant T335_01G/GpL16-k0 (antibody, human IgG1, kappa)
# heavy: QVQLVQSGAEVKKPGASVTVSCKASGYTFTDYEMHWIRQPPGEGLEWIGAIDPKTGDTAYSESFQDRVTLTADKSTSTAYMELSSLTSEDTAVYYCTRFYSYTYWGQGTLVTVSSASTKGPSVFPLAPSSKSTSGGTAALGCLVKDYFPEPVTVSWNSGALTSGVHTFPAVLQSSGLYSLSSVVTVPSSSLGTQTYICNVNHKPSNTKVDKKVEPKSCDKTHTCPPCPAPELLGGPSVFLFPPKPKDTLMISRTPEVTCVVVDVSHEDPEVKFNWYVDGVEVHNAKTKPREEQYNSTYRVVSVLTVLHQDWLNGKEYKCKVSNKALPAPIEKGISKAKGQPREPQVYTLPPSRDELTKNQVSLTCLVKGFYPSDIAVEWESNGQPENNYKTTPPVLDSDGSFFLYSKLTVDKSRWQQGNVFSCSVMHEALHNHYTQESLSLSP
# light: B1 light
# notes: also called Ho Ab
# B18: GpH7-B3 variant Y296_09D/GpL16-k0 (antibody, human IgG1, kappa)
# heavy: not shown
# light: B1 light
# notes: also called Ho Ab
# B19: GpH7-B3 variant S337_15Y/GpL16-k0 (antibody, human IgG1, kappa)
# heavy: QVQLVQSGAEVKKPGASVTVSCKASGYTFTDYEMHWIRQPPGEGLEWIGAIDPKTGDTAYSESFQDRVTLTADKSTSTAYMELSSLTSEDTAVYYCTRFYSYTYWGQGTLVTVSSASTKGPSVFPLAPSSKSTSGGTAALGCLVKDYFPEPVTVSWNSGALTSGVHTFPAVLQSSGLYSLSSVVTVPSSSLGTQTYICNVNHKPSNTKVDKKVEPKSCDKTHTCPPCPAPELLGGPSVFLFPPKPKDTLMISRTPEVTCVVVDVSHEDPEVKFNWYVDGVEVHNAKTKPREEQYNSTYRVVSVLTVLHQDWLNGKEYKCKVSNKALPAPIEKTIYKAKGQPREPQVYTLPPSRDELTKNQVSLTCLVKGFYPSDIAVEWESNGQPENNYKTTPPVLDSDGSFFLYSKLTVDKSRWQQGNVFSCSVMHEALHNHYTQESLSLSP
# light: B1 light
# notes: also called Ho Ab
# B20: GpH7-B3 variant T335_13S/GpL16-k0 (antibody, human IgG1, kappa)
# heavy: not shown
# light: B1 light
# notes: also called Ho Ab
# B21: GpH7-B3 variant Y296_20W/GpL16-k0 (antibody, human IgG1, kappa)
# heavy: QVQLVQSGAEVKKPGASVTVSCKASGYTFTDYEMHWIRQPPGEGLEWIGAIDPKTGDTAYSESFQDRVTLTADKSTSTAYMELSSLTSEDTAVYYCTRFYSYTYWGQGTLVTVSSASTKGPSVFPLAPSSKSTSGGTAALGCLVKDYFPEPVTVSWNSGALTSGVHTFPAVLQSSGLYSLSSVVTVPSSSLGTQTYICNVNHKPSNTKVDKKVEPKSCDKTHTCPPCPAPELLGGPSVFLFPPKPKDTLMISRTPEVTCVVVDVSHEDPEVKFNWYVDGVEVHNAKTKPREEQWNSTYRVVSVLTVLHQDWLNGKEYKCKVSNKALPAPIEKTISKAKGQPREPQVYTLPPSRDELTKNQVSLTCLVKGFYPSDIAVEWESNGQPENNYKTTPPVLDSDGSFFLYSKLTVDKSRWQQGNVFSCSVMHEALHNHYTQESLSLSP
# light: B1 light
# notes: also called Ho Ab
# B22: GpH7-B3 variant S337_19Q/GpL16-k0 (antibody, human IgG1, kappa)
# heavy: not shown
# light: B1 light
# notes: also called Ho Ab
# B23: GpH7-B3 variant S337_10E/GpL16-k0 (antibody, human IgG1, kappa)
# heavy: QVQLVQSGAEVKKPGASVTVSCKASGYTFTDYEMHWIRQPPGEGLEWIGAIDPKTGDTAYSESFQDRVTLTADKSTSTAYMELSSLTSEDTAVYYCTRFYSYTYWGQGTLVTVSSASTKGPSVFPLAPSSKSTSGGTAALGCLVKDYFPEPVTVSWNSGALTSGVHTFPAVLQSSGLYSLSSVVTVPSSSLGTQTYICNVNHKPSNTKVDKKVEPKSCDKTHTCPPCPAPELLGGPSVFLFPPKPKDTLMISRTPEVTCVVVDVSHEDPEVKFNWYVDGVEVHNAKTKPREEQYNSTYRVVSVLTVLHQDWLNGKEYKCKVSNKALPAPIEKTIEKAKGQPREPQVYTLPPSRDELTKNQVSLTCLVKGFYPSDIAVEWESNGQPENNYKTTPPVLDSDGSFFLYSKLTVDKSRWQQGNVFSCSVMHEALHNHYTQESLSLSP
# light: B1 light
# notes: also called Ho Ab
# B24: GpH7-A5/GpH7-B3 variant P331_20W/GpL16-k0 (antibody, human IgG1, kappa)
# heavy 1: not shown
# heavy 2: not shown
# light: B1 light
# notes: also called He Ab
# B25: GpH7-B3 variant Y296_10E/GpL16-k0 (antibody, human IgG1, kappa)
# heavy: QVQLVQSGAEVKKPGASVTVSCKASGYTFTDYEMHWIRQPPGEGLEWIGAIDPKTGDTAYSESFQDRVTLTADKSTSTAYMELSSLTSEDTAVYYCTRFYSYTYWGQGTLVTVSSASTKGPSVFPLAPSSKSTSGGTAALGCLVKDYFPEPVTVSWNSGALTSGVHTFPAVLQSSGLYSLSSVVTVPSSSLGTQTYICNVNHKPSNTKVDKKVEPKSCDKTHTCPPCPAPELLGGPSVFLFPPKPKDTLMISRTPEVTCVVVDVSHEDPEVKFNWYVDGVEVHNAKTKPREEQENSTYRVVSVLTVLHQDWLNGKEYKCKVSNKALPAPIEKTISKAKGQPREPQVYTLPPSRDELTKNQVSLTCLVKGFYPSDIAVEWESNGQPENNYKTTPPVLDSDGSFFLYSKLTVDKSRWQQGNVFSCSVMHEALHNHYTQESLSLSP
# light: B1 light
# notes: also called Ho Ab
# B26: GpH7-B3 variant T335_12R/GpL16-k0 (antibody, human IgG1, kappa)
# heavy: not shown
# light: B1 light
# notes: also called Ho Ab
# B27: GpH7-B3 variant V266_06M/GpL16-k0 (antibody, human IgG1, kappa)
# heavy: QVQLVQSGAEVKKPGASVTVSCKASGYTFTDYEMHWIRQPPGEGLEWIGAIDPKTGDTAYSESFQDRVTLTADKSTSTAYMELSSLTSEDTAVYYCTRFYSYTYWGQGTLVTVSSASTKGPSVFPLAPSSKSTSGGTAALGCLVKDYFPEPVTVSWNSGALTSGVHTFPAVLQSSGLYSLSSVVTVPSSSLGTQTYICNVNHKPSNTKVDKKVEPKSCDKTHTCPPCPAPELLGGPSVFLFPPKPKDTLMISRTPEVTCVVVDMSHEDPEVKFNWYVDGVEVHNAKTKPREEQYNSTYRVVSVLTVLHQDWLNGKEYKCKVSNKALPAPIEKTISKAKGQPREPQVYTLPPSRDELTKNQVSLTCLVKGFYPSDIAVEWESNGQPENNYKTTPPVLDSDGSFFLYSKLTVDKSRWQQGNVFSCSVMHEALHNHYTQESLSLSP
# light: B1 light
# notes: also called Ho Ab
# B28: GpH7-B3 variant T335_20W/GpL16-k0 (antibody, human IgG1, kappa)
# heavy: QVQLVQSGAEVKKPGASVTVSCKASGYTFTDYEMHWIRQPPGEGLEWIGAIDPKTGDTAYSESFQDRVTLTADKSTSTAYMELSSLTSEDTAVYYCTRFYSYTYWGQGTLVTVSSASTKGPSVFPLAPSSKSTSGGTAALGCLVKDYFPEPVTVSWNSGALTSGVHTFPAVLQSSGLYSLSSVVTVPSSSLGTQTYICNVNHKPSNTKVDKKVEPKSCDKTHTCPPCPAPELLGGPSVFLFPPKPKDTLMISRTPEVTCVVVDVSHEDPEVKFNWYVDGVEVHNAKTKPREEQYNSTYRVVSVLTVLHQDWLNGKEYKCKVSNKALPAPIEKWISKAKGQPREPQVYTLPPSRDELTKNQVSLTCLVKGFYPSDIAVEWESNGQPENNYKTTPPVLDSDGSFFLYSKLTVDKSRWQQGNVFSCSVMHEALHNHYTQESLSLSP
# light: B1 light
# notes: also called Ho Ab
# Target: T1, FcγRIIa R (FcγRIIa, allotype with Arg …)
# Experiment: SPR (Biacore), antibody captured on antigen peptide chip, FcγR as analyte; relative binding
# Experimental: Analysis of interaction between objective antibody and the FcγR was carried out using Biacore T100 (GE Healthcare). HBS-EP+ (GE Healthcare) was used as the running buffer, and the measurement temperature was set to 25° C. Chips produced by immobilizing the antigen peptide by the amine coupling method to a Series S Sencor Chip CM5 (GE Healthcare), or alternatively, chips produced by allowing preliminarily biotinylated antigen peptides to interact with and immobilize onto a Series S Sensor Chip SA (certified) (GE Healthcare) were used. Antibodies of interest were captured onto an antigen peptide-immobilized chip, and allowed to interact to each FcγR diluted with running buffer. To regenerate and repeatedly use the chip, the antibodies captured on the chip were washed off by reacting 10 mM glycine-HCl, pH 1.5.
Ho/Con_2aR,He/Con_2aR,Binder
105 % of GpH7-B3/GpL16-k0 (=100),,B1
100 % of GpH7-B3/GpL16-k0 (=100),,B2
,106 % of GpH7-A5/GpH7-B3/GpL16-k0 (=100),B3
109 % of GpH7-B3/GpL16-k0 (=100),,B4
,102 % of GpH7-A5/GpH7-B3/GpL16-k0 (=100),B5
84 % of GpH7-B3/GpL16-k0 (=100),,B6
93.7 % of GpH7-B3/GpL16-k0 (=100),,B7
103 % of GpH7-B3/GpL16-k0 (=100),,B8
104 % of GpH7-B3/GpL16-k0 (=100),,B9
114 % of GpH7-B3/GpL16-k0 (=100),,B10
,106 % of GpH7-A5/GpH7-B3/GpL16-k0 (=100),B11
107 % of GpH7-B3/GpL16-k0 (=100),,B12
102 % of GpH7-B3/GpL16-k0 (=100),,B13
,102 % of GpH7-A5/GpH7-B3/GpL16-k0 (=100),B14
118 % of GpH7-B3/GpL16-k0 (=100),,B15
102 % of GpH7-B3/GpL16-k0 (=100),,B16
97.7 % of GpH7-B3/GpL16-k0 (=100),,B17
94.5 % of GpH7-B3/GpL16-k0 (=100),,B18
100 % of GpH7-B3/GpL16-k0 (=100),,B19
102 % of GpH7-B3/GpL16-k0 (=100),,B20
107 % of GpH7-B3/GpL16-k0 (=100),,B21
102 % of GpH7-B3/GpL16-k0 (=100),,B22
110 % of GpH7-B3/GpL16-k0 (=100),,B23
,110 % of GpH7-A5/GpH7-B3/GpL16-k0 (=100),B24
90.2 % of GpH7-B3/GpL16-k0 (=100),,B25
94 % of GpH7-B3/GpL16-k0 (=100),,B26
146 % of GpH7-B3/GpL16-k0 (=100),,B27
101 % of GpH7-B3/GpL16-k0 (=100),,B28
